According to patent US20260232732A1 (FUNDACI INSTITUT DE RECERCA CONTRA LA LEUC MIA JOSEP …, published 2026):
Where no end group is shown, it is not given here. The star is where a group is joined. Biotin = O=C1N[C@H]2[C@H](CS[C@H]2CCCCC(=O)*)N1

T1: Pep1-48, N-terminal domain 1 of CCR9, amino acids 1 to 48 (human)
T1 construct: Chemically synthesized (Genscript), purity >75%; also called CCR9 N-terminal 1-48 peptide
T1 peptide: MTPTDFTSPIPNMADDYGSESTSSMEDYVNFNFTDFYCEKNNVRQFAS

T2: naked peptide 1a MTPTDFTSPIPNMADDYGSESTSS (human)
T2 construct: also called region 1-24
T2 peptide: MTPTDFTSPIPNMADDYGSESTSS

T3: naked peptide 1b MEDYVNFNFTDFYCEKNNVRQFAS (human)
T3 construct: also called region amino acids 25 to 48
T3 peptide: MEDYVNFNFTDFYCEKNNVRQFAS

T4: biotin-peptide TDFYCEKNNV (human)
T4 peptide: Biotin-TDFYCEKNNV

T5: biotin-peptide MTPTDFTSPI (human, also: prints MTPTDFTSP, without I10)
T5 peptide: Biotin-MTPTDFTSPI

T6: biotin-peptide SMEDYVNFNF (human)
T6 peptide: Biotin-SMEDYVNFNF

T7: biotin-peptide SESTSSMEDY (human)
T7 peptide: Biotin-SESTSSMEDY

T8: biotin-peptide TSPIPNMADD (human)
T8 peptide: Biotin-TSPIPNMADD

T9: biotin-peptide MEDYVNFNFT (human)
T9 peptide: Biotin-MEDYVNFNFT

T10: biotin-peptide TSSMEDYVNF (human)
T10 peptide: Biotin-TSSMEDYVNF

T11: biotin-peptide TDFTSPIPNM (human)
T11 peptide: Biotin-TDFTSPIPNM

T12: biotin-peptide DYGSESTSSM (human)
T12 peptide: Biotin-DYGSESTSSM

T13: biotin-peptide YCEKNNVRQF (human)
T13 peptide: Biotin-YCEKNNVRQF

T14: biotin-peptide FNFTDFYCEK (human)
T14 peptide: Biotin-FNFTDFYCEK

T15: biotin-peptide IPNMADDYGS (human)
T15 peptide: Biotin-IPNMADDYGS

T16: biotin-peptide YVNFNFTDFY (human)
T16 peptide: Biotin-YVNFNFTDFY

T17: biotin-peptide SSMEDYVNFN (human)
T17 peptide: Biotin-SSMEDYVNFN

T18: biotin-peptide MADDYGSEST (human)
T18 peptide: Biotin-MADDYGSEST

T19: biotin-peptide KNNVRQFAS (human)
T19 peptide: Biotin-KNNVRQFAS

T20: naked peptide TSSMEDYVNF (human)
T20 peptide: TSSMEDYVNF

T21: naked peptide FNFTDFYCEK (human)
T21 peptide: FNFTDFYCEK

T22: naked peptide SMEDYVNFNF (human)
T22 peptide: SMEDYVNFNF

T23: naked peptide SESTSSMEDY (human)
T23 peptide: SESTSSMEDY

T24: naked peptide YVNFNFTDFY (human)
T24 peptide: YVNFNFTDFY


Assays:
[1] = target: T1, Pep1-48, N-terminal domain 1 of CCR9, …; experiment: BLI, scFv on NTA biosensor, 1:1 global fit
Protocol: The affinity between the CCR9-N-terminal domain 1 of CCR9 and the different scFvs was determined by Bio-Layer Interferometry (BLI), a technique that allows quantitative and qualitative measurement of biomolecular interactions in real-time. Briefly, scFv were immobilized onto NTA Biosensor (Sartorius) and quantification was performed in an Octet RED384 (Sartorius). scFv were dissolved in PBS (150 mM NaCl, 38 mM Na2HPO4, 12 mM NaH2PO4, pH 7.2) and a buffer containing 0.03% Tween-20 in PBS, pH 7.2 was used for baseline steps.

[2] = target: T2, naked peptide 1a …; experiment: ELISA naked 24-mer; repII
[3] = target: T3, naked peptide 1b …; experiment: ELISA naked 24-mer; repII
[4] = target: T4, biotin-peptide TDFYCEKNNV; experiment: ELISA biotin-peptide; scFv 10 ug/mL; repII
Protocol: (§1) The peptides were synthesized naked or with a N-terminal Biotin modification with a purity of >98%. All four scFvs were verified by ELISA that can be detected with anti-His antibodies. ELISA was performed for scFv-peptide binding validation. Briefly, naked peptides were coated (50 μg/mL) in 0.58M carbonate-bicarbonate buffer pH9.5, 100 μL/well, 4° C. O/N. Then after blocking (3% BSA-PBS, 300 μL/well 37° C. 1.5 h) and washing (PBS+Tween-20 0.05% v/v (0.05% PBST), wells were incubated with each purified scFv antibody at concentration of 1 μg/mL in PBS at 37° C. 1 h. After washing (0.05% PBST), wells were incubated with secondary antibodies (goat anti-His IgG-HRP) in PBS, 37° C., 30 min. After washing, and incubation with TMB substrate, reactions were stopped with 2M HCl and reading was quantified at OD450.
(§2) ELISA with biotin-conjugated peptides (5 μg/mL) was performed very similar to described above with minor modifications.

[5] = target: T5, biotin-peptide MTPTDFTSPI; experiment: ELISA biotin-peptide; scFv 10 ug/mL; repII
Protocol: as §1, §2

[6] = target: T6, biotin-peptide SMEDYVNFNF; experiment: ELISA biotin-peptide; scFv 10 ug/mL; repII
Protocol: as §1, §2

[7] = target: T7, biotin-peptide SESTSSMEDY; experiment: ELISA biotin-peptide; scFv 10 ug/mL; repII
Protocol: as §1, §2

[8] = target: T8, biotin-peptide TSPIPNMADD; experiment: ELISA biotin-peptide; scFv 10 ug/mL; repII
Protocol: as §1, §2

[9] = target: T9, biotin-peptide MEDYVNFNFT; experiment: ELISA biotin-peptide; scFv 10 ug/mL; repII
Protocol: as §1, §2

[10] = target: T10, biotin-peptide TSSMEDYVNF; experiment: ELISA biotin-peptide; scFv 10 ug/mL; repII
Protocol: as §1, §2

[11] = target: T11, biotin-peptide TDFTSPIPNM; experiment: ELISA biotin-peptide; scFv 10 ug/mL; repII
Protocol: as §1, §2

[12] = target: T12, biotin-peptide DYGSESTSSM; experiment: ELISA biotin-peptide; scFv 10 ug/mL; repII
Protocol: as §1, §2

[13] = target: T13, biotin-peptide YCEKNNVRQF; experiment: ELISA biotin-peptide; scFv 10 ug/mL; repII
Protocol: as §1, §2

[14] = target: T14, biotin-peptide FNFTDFYCEK; experiment: ELISA biotin-peptide; scFv 10 ug/mL; repII
Protocol: as §1, §2

[15] = target: T15, biotin-peptide IPNMADDYGS; experiment: ELISA biotin-peptide; scFv 10 ug/mL; repII
Protocol: as §1, §2

[16] = target: T16, biotin-peptide YVNFNFTDFY; experiment: ELISA biotin-peptide; scFv 10 ug/mL; repII
Protocol: as §1, §2

[17] = target: T17, biotin-peptide SSMEDYVNFN; experiment: ELISA biotin-peptide; scFv 10 ug/mL; repII
Protocol: as §1, §2

[18] = target: T18, biotin-peptide MADDYGSEST; experiment: ELISA biotin-peptide; scFv 10 ug/mL; repII
Protocol: as §1, §2

biotin-peptide KNNVRQFAS = target: T19, biotin-peptide KNNVRQFAS; experiment: ELISA biotin-peptide; scFv 10 ug/mL; repII
Protocol: as §1, §2

naked peptide TSSMEDYVNF = target: T20, naked peptide TSSMEDYVNF; experiment: ELISA naked peptide; scFv 1 ug/mL; repII
Protocol: as §1
(§3) Then a library of overlapping peptides were designed and constructed separately to produce 16 different peptides, covering full antigen sequence of total 48 aa. Peptide size was 10aa, with 7aa overlapping and ELISA screening of scFv against each peptide was performed in duplicate. Screening was performed using naked peptides in a standard plate or biotinylated peptides using avidin-plates.

naked peptide FNFTDFYCEK = target: T21, naked peptide FNFTDFYCEK; experiment: ELISA naked peptide; scFv 1 ug/mL; repII
Protocol: as §1, §3

naked peptide SMEDYVNFNF = target: T22, naked peptide SMEDYVNFNF; experiment: ELISA naked peptide; scFv 1 ug/mL; repII
Protocol: as §1, §3

naked peptide SESTSSMEDY = target: T23, naked peptide SESTSSMEDY; experiment: ELISA naked peptide; scFv 1 ug/mL; repII
Protocol: as §1, §3

naked peptide YVNFNFTDFY = target: T24, naked peptide YVNFNFTDFY; experiment: ELISA naked peptide; scFv 1 ug/mL; repII
Protocol: as §1, §3

Binder | OD450 [2] | OD450 [3] | OD450 [4] | OD450 [5] | OD450 [6] | OD450 [7] | OD450 [8] | OD450 [9] | OD450 [10] | OD450 [11] | OD450 [12] | OD450 [13] | OD450 [14] | OD450 [15] | OD450 [16] | OD450 [17] | OD450 [18] | OD450 (biotin-peptide KNNVRQFAS) | OD450 (naked peptide TSSMEDYVNF) | OD450 (naked peptide FNFTDFYCEK) | further results
CCR9_HUM2 scFv (humanized anti-CCR9 scFv, SEQ ID NO: 17 with C-terminal 6xHis tag) (scFv) scFv: QVQLVQSGAEVKKPGASVKVSCTASGYSFTDYIIYWVKQAHGQSLEWMGYIDPNNYNTRYSQKFQGKVTITVDKSSTSAYMELNSLTSDDTAVYYCARDVYWGQGTTVTVSSGGGGSGGGGSGGGGSGGGGSDVVMTQTPLSLSVTPGQPASISCRSSQSLVHSNGKTYLQWYLQKPGQSPKLLIYKVSNRFSGVPDRFSGSGSGTDFTLKISRVEAEDVGVYFCAQSTHVWTFGGGTKVEIKRAHHHHHH | 0.08 OD | 2.24 OD | 0.06 OD | 0.09 OD | 2.38 OD | 0.09 OD | 0.06 OD | 2.32 OD | 1.92 OD | 0.09 OD | 0.07 OD | 0.06 OD | 0.06 OD | 0.1 OD | 0.21 OD | 2.3 OD | 0.16 OD | 0.09 OD | 0.03 OD | 0.03 OD | Kd [1]: 6.25 nM; koff [1]: 0.00168 s⁻¹; kon [1]: 268000 M⁻¹ s⁻¹; OD450 (naked peptide SMEDYVNFNF): 1.48 OD; OD450 (naked peptide SESTSSMEDY): 0.03 OD; OD450 (naked peptide YVNFNFTDFY): 0.02 OD
Comparative antibody 3 (Comp-3) scFv, SR_92R (Somovilla-Crespo et al. 2018), His-tagged (scFv) scFv: EVKLEESGGGLVQPGGSMKLSCVASGFTFNKFWMNWVRQSPEKGLEWVAEIRLKSNNYATHYAESVKGRFTISRDDSKSSVYLQMNNLRAEDTGIYYCASDGWFAYWGQGTLVTVSAGGGGSGGGGSGGGGSGGGGSDVVMTQTPLSLPVSLGDQASISCRSSQSLVHSNGNTYLNWCLQRPGQSPKSLIYKVSNRFSGVPDRFSGSGSGTDFTLKISRVEAEDLGVYFCSQSTHFPRTFGGGTKLEIKRHHHHHH | 1.35 OD | 0.09 OD | 0.09 OD | 0.13 OD | 0.12 OD | 0.12 OD | 1.69 OD | 0.11 OD | 0.12 OD | 0.11 OD | 0.1 OD | 0.09 OD | 0.07 OD | 1.47 OD | 0.13 OD | 0.12 OD | 0.13 OD | 0.08 OD | 0.03 OD | 0.07 OD | Kd [1]: 33.1 nM; koff [1]: 0.012 s⁻¹; kon [1]: 364000 M⁻¹ s⁻¹; OD450 (naked peptide SMEDYVNFNF): 0.07 OD; OD450 (naked peptide SESTSSMEDY): 0.04 OD; OD450 (naked peptide YVNFNFTDFY): 0.01 OD
Comparative antibody 2 (Comp-2) scFv, 243LO326 (VH SEQ ID NO: 51 and VL SEQ ID NO: 52 of WO 2022/195028 A2), His-tagged (scFv) scFv: QVQLVQSGAEVKKPGASVKVSCKASGYTFTSYWMHWVRQAPGQGLEWIGVIYPGNSDTRYNQKFKGRVTITRDTSASTAYMELSSLRSEDTAVYYCTRDYYSNYVYYYAMDYWGQGTTVTVSSGGGGSGGGGSGGGGSGGGGSDIVMTQTPLSLPVTPGEPASISCRSSQSLVHPNRNTYLHWYLQKPGQSPQLLIYKVSNRFSGVPDRFSGSGSGTDFTLKISRVEAEDVGVYYCSQSTHVPWTFGQGTKLEIKHHHHHH | 0.08 OD | 2.01 OD | 0.05 OD | 0.1 OD | 0.05 OD | 0.05 OD | 0.05 OD | 0.08 OD | 0.06 OD | 0.12 OD | 0.09 OD | 0.1 OD | 1.35 OD | 0.09 OD | 2.06 OD | 0.1 OD | 0.09 OD | 0.07 OD | 0.03 OD | 0.03 OD | Kd [1]: 61.4 nM; koff [1]: 0.0152 s⁻¹; kon [1]: 248000 M⁻¹ s⁻¹; OD450 (naked peptide SMEDYVNFNF): 0.03 OD; OD450 (naked peptide SESTSSMEDY): 0.02 OD; OD450 (naked peptide YVNFNFTDFY): 0.01 OD
Comparative antibody 1 (Comp-1) scFv, SEQ ID NO: 10 from WO2023/037125 A1, His-tagged (scFv) scFv: QVQLKESGPGLVQPSQTLSLTCTVSGFSVASYDMHWVRLPPGKGLEWMGIIWANGNTHYNSGLKSRLSISRDTSKSQVFLKMNSLQTEDTAIYFCTRGGFAYWGQGTLVTVSSGGGGSGGGGSGGGGSGGGGSDVVMTQTPVSLSVSLGGQVSISCRSSQSLVHNNGNTYLSWYLQKPGQSPQLLIYKVSNRFSGVSDRFSGSGSGTDFTLKISRVEPDDLGVYYCGQGTQYPTFGGGTKLELKHHHHHH | 0.1 OD | 0.06 OD | 0.05 OD | 0.07 OD | 0.1 OD | 0.1 OD | 0.15 OD | 0.14 OD | 0.08 OD | 0.08 OD | 0.11 OD | 0.06 OD | 0.05 OD | 0.14 OD | 0.09 OD | 0.13 OD | 0.07 OD | 0.06 OD | 0.03 OD | 0.02 OD | OD450 (naked peptide SMEDYVNFNF): 0.02 OD; OD450 (naked peptide SESTSSMEDY): 0.04 OD; OD450 (naked peptide YVNFNFTDFY): 0.04 OD
